Assay results taken from patent US9119806B2, “Culturing circular ssDNA viruses for the production of vaccines” (priority 2007, dated 2015).

Tests used:
[1] = tested on: PCV2-infected 3D4/31 cells; assay: Number of PCV2-infected 3D4/31 cells (IPMA) after cytokine treatment; format: cell-based, Porcine circovirus 2; conditions: for increase in PCV2-positive cells: 3D4/31
From the text: (§1) In order to use cells, more related to the target cells in vivo, the monocytic cell line 3D4/31 was used to confirm the effect of the different cytokines on the number of PCV2-infected cells. The 3D4/31 cell line is a porcine monomyeloid cell lines that was established following transfection of primary porcine alveolar macrophage cultures with plasmid pSV3neo, carrying genes for neomycin resistance and SV40 large T antigen. (Weingartl et al. (2002) J Virol Methods. 10, 203-216). These cells were maintained in a 1:1 mixture of RPMI-1640 (Invitrogen) and DMEM (Invitrogen) supplemented with 10% fetal bovine serum, 0.3 mg/ml glutamine, 100 U/ml penicillin, 0.1 mg/ml streptomycin, 0.1 mg/ml kanamycin and 1% non-essential amino acids 100× (GIBCO BRL®, Grand Island, USA). These experiments were also performed in 96-well plates containing the same number of cells. Furthermore, to monitor the effect of IFN-gamma on the entry of PCV2 virion-like particles was determined, 3D4/31 cells were seeded at 2×10^5 cells/ml of medium onto microscopic slides mounted with an 8 well cell culture silicone chamber (Vivascience AG, Hanover). In all inoculations, the same PCV2-strain (Stoon-1010) was used at a multiplicity of infection of 0.01. The virus was diluted in MEM and inoculated on the cell cultures by incubating cells and virus for 1 hour at 37° C. After 1 hour, the inoculum was removed, the cultures were washed twice with MEM and new culture medium was added.
(§2) The influence of the cytokines on the infection of PCV2 in PK-15 and 3D4/31 cells was determined by adding two-fold-dilution series of the cytokines to the medium of the cells before, during or after the inoculation. IL-1, IL-6, […] and IFN-alpha were used in concentrations ranging from 0.25-250 Units/ml (U/ml), IFN-gamma was used in concentrations ranging from 0.25-1000 U/ml and IL-10 was used in concentrations from 0.13-125 U/ml. Cell cultures were either pre-treated with the cytokines for 24 hours before inoculation, treated during the inoculation or the cytokines were added in the medium after the inoculation. After 36 hours of incubation at 37° C. in an environment supplemented with 5% CO2, the cells were fixed by drying and frozen at −20° C. The plates were stained with an immuno-peroxydase monolayer assay (IPMA) as described by Sanchez et al. (2003, Vet Microbiol 95, 15-25) and the number of PCV2-positive cells was counted by light microscopy. In each plate a control was inoculated with an equal dose of mock-treated PCV2 (treated with MEM without cytokines). The number of infected cells in this well was used as the reference and all results were expressed as a ratio to this reference.

EMC virus = conditions: porcine PK-15 cells infected with EMC virus; supplier leaflet, typical; cited from earlier work
PCV2 in PK-15 cells = assay: Progeny PCV2 virus production in PK-15 cells with IFN-gamma; format: cell-based, Porcine circovirus 2
Procedure: The influence of IFN-gamma on the production of progeny virus in PCV2-infected cells was determined by inoculating PK-15 cells with the standard PCV2-stock. After the inoculation, culture medium was added supplemented with IFN-gamma (500 U/ml). At 0, 12, 24, 36, 48 and 72 hours post inoculation (hpi) the supernatant was collected. Subsequently the culture was washed once with 1 ml PBS. Both the supernatant and the washing fluid were centrifuged for 10 minutes at 15,000×g to pellet cells and debris. The centrifuged supernatant and washing fluids were combined and considered to contain the extracellular virus. Both pellets and cell cultures were freeze-thawed tree times and considered to contain the intracellular virus. Intra- and extracellular virus titres were determined by titration on PCV-negative PK-15 cells as described previously.

[2] = tested on: PCV2 capsids in 3D4/31 cells; assay: Entry (internalization) of PCV2 recombinant capsids in 3D4/31 cells; format: cell-based, Porcine circovirus 2; conditions: 3D4/31 cells treated with IFN-gamma
Procedure: To study the internalization of recombinant capsids on 3D4/31, cells were washed with RPMI-1640 at 37° C. and then incubated with capsids at 37° C. for 15 minutes followed by washing of unbound capsids. Cells were then fixed with a 3% solution of paraformaldehyde (rPBS) for 10 minutes at 30, 60 and 120 minutes since the addition of capsids into the cells, washed with PBS, and permeabilized in a 0.1% Triton X-100 solution in rPBS. Capsids were stained by incubating the calls with a biotin-conjugated anti-PCV2 swine polyclonal antibody followed by streptavidin-FITC (Molecular Probes, Eugene, Oreg.).

[3] = tested on: PCV2-infected PK-15 cells; assay: Number of PCV2-infected PK-15 cells (IPMA) after treatment with cytokines or natural cytokine sources; format: cell-based, Porcine circovirus 2; conditions: for increase in PCV2-positive cells / lowest concentration inducing a significant effect on PCV2-positive cells: PK-15
Procedure: PK-15 cells were seeded and maintained in culture medium containing 5%-10% fetal bovine serum (FBS), 0.3 mg/ml glutamine, 100 U/ml penicillin, 0.1 mg/ml streptomycin, 0.1 mg/ml kanamycin dissolved in minimal essential medium (MEM) (Gibco BRL®, Grand Island, USA) or dissolved in RPMI-1640 (GIBCO BRL®, Grand Island, USA) containing 1% nonessential amino acids (100×; GIBCO BRL®, Grand Island, USA) and 1 mM sodium pyruvate (GIBCO BRL®, Grand Island, USA). Cells were seeded at a concentration of 150,000 cells per ml of medium. For the detection of total viral antigen positive cells, the cells were seeded in 96-well microtiter plates (Nunc) (15,000-20,000 cells per well). To detect the expression of specific viral antigens, cells were seeded on sterile cover slips in Leighton tubes (150,000 cells per tube) and finally progeny virus production assays were performed in 24-well plates containing […].
as §1, §2
Two-fold dilutions of the BAL-fluids of the PRCV and mock-inoculated pigs were added to the medium of PCV2-inoculated PK-15 cells after inoculation. Concentrations of the added BAL-fluids ranged from 1.25 to 5%. Supernatants of ConA and mock-stimulated PBMC's were also added to the culture medium of PK-15 cells after inoculation in concentrations ranging from […] to 50%. […]

B1: IFN-gamma: Porcine interferon gamma purchased from R&D systems (protein, UniProt P17803 24-166, looked up)
Interferon gamma: QAPFFKEITILKDYFNASTSDVPNGGPLFLEILKNWKEESDKKIIQSQIVSFYFKFFEIFKDNQAIQRSMDVIKQDMFQRFLNGSSGKLNDFEKLIKIPVDNLQIQRKAISELIKVMNDLSPRSNLRKRKRSQTMFQGQRASK
[1]; treated after inoculation
  increase in PCV2-positive cells: 523±115%
[1]; treated before inoculation
  increase in PCV2-positive cells: 806±88%
[1]; treated during inoculation
  increase in PCV2-positive cells: 214±16%
[1]; 3D4/31 cells, any concentration, before, during or after inoculation
  change in the number of PCV2-positive cells (in words): dose-dependent increase
EMC virus
  ED50 for anti-viral effect: 0.015 to 0.045 ng/mL
PCV2 in PK-15 cells; 500 U/ml after inoculation, 72 hpi
  total PCV2 production higher compared to non-treated cells: 1.3 log10 TCID50
PCV2 in PK-15 cells; 500 U/ml, compared to non-treated control cells
  extracellular and intracellular virus production (in words): increased
[2]
  number of internalized virions (in words): significant increase
[3]; 1000 U/ml added after inoculation
  increase in PCV2-positive cells: 791±105%
[3]; 1000 U/ml added before inoculation
  increase in PCV2-positive cells: 518±134%
[3]; 1000 U/ml added during inoculation
  increase in PCV2-positive cells: 270±57%
[3]; administered after inoculation
  lowest concentration inducing a significant effect on PCV2-positive cells: 2 U/ml
[3]; administered before inoculation
  lowest concentration inducing a significant effect on PCV2-positive cells: 16 U/ml
[3]; administered during inoculation
  lowest concentration inducing a significant effect on PCV2-positive cells: 2 U/ml
[3]; PK-15 cells, cytokine dilution series, before, during or after inoculation, 36 h
  change in the number of PCV2-positive cells (in words): dose-dependent increase
